In patent US20180009871A1 (INTARCIA THERAPEUTICS, published 2018):
Where no end group is shown, it is not given here. [ ]: non-standard residue; d: D form. Aib = CC(C)(N)C(=O)O

Columns and labels:
[1] = target: human glucagon receptor (GCGR) (human, UniProt P47871 26-477); experiment: cell-based or functional assay
[2] = target: human GLP-1 receptor (GLP-1R) (human, UniProt P43220 24-463); experiment: cell-based or functional assay
Sequence of human GLP-1 receptor (GLP-1R) (P43220 24-463): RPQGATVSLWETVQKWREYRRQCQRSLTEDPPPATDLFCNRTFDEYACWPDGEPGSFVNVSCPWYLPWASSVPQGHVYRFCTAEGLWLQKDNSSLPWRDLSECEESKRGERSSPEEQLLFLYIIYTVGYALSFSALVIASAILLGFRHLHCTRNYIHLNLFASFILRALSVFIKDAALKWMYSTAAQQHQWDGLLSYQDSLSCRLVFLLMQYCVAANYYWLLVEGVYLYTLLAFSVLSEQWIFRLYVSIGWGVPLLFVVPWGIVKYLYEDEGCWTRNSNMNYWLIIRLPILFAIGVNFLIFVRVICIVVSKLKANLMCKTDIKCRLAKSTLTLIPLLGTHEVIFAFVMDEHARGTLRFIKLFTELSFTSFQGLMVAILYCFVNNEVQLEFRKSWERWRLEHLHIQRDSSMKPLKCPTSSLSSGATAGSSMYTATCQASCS

Row | Binder | hGCGR pEC50 (cAMP) [1] | hGLP1 pEC50 (cAMP) [2]
1 | YSHGTFTSDYSKYLDSARAQEFVKWLEDEPSSGAPPPS-NH2 [Compound A5] | 11.8 pEC50 | 5.8 pEC50
2 | YSQGTFTSDYSKYLDAARAQEFVKWLEDEPKSKSPPPS-NH2 [Compound A3] | 12.1 pEC50 | 6.7 pEC50
3 | YSHGTFTSDYSKYLD[Aib]KAAQEFV[Aib]WLEDEPSSGAPPPS-OH (N-terminus assumed; SMILES CC(C)C[C@H](NC(=O)[C@H](Cc1ccc(O)cc1)NC(=O)[C@H](CCCCN)NC(=O)[C@H](CO)NC(=O)[C@H](Cc1ccc(O)cc1)NC(=O)[C@H](CC(=O)O)NC(=O)[C@H](CO)NC(=O)[C@@H](NC(=O)[C@H](Cc1ccccc1)NC(=O)[C@@H](NC(=O)CNC(=O)[C@H](Cc1c[nH]cn1)NC(=O)[C@H](CO)NC(=O)[C@@H](N)Cc1ccc(O)cc1)[C@@H](C)O)[C@@H](C)O)C(=O)N[C@@H](CC(=O)O)C(=O)NC(C)(C)C(=O)N[C@@H](CCCCN)C(=O)N[C@@H](C)C(=O)N[C@@H](C)C(=O)N[C@@H](CCC(N)=O)C(=O)N[C@@H](CCC(=O)O)C(=O)N[C@@H](Cc1ccccc1)C(=O)N[C@H](C(=O)NC(C)(C)C(=O)N[C@@H](Cc1c[nH]c2ccccc12)C(=O)N[C@@H](CC(C)C)C(=O)N[C@@H](CCC(=O)O)C(=O)N[C@@H](CC(=O)O)C(=O)N[C@@H](CCC(=O)O)C(=O)N1CCC[C@H]1C(=O)N[C@@H](CO)C(=O)N[C@@H](CO)C(=O)NCC(=O)N[C@@H](C)C(=O)N1CCC[C@H]1C(=O)N1CCC[C@H]1C(=O)N1CCC[C@H]1C(=O)N[C@@H](CO)C(=O)O)C(C)C) [Compound A76] | 12.7 pEC50 | < 9 pEC50
4 | YSHGTFTSDYSKYLD[Aib]KTAQEFV[Aib]WLEDEPSSGAPPPS-OH (N-terminus assumed; SMILES CC(C)C[C@H](NC(=O)[C@H](Cc1ccc(O)cc1)NC(=O)[C@H](CCCCN)NC(=O)[C@H](CO)NC(=O)[C@H](Cc1ccc(O)cc1)NC(=O)[C@H](CC(=O)O)NC(=O)[C@H](CO)NC(=O)[C@@H](NC(=O)[C@H](Cc1ccccc1)NC(=O)[C@@H](NC(=O)CNC(=O)[C@H](Cc1c[nH]cn1)NC(=O)[C@H](CO)NC(=O)[C@@H](N)Cc1ccc(O)cc1)[C@@H](C)O)[C@@H](C)O)C(=O)N[C@@H](CC(=O)O)C(=O)NC(C)(C)C(=O)N[C@@H](CCCCN)C(=O)N[C@H](C(=O)N[C@@H](C)C(=O)N[C@@H](CCC(N)=O)C(=O)N[C@@H](CCC(=O)O)C(=O)N[C@@H](Cc1ccccc1)C(=O)N[C@H](C(=O)NC(C)(C)C(=O)N[C@@H](Cc1c[nH]c2ccccc12)C(=O)N[C@@H](CC(C)C)C(=O)N[C@@H](CCC(=O)O)C(=O)N[C@@H](CC(=O)O)C(=O)N[C@@H](CCC(=O)O)C(=O)N1CCC[C@H]1C(=O)N[C@@H](CO)C(=O)N[C@@H](CO)C(=O)NCC(=O)N[C@@H](C)C(=O)N1CCC[C@H]1C(=O)N1CCC[C@H]1C(=O)N1CCC[C@H]1C(=O)N[C@@H](CO)C(=O)O)C(C)C)[C@@H](C)O) [Compound A77] | 11.5 pEC50 | < 9 pEC50
5 | YSHGTFTSDYSKYLD[Aib]KEAQEFV[Aib]WLEDEPSSGAPPPS-OH (N-terminus assumed; SMILES CC(C)C[C@H](NC(=O)[C@H](Cc1ccc(O)cc1)NC(=O)[C@H](CCCCN)NC(=O)[C@H](CO)NC(=O)[C@H](Cc1ccc(O)cc1)NC(=O)[C@H](CC(=O)O)NC(=O)[C@H](CO)NC(=O)[C@@H](NC(=O)[C@H](Cc1ccccc1)NC(=O)[C@@H](NC(=O)CNC(=O)[C@H](Cc1c[nH]cn1)NC(=O)[C@H](CO)NC(=O)[C@@H](N)Cc1ccc(O)cc1)[C@@H](C)O)[C@@H](C)O)C(=O)N[C@@H](CC(=O)O)C(=O)NC(C)(C)C(=O)N[C@@H](CCCCN)C(=O)N[C@@H](CCC(=O)O)C(=O)N[C@@H](C)C(=O)N[C@@H](CCC(N)=O)C(=O)N[C@@H](CCC(=O)O)C(=O)N[C@@H](Cc1ccccc1)C(=O)N[C@H](C(=O)NC(C)(C)C(=O)N[C@@H](Cc1c[nH]c2ccccc12)C(=O)N[C@@H](CC(C)C)C(=O)N[C@@H](CCC(=O)O)C(=O)N[C@@H](CC(=O)O)C(=O)N[C@@H](CCC(=O)O)C(=O)N1CCC[C@H]1C(=O)N[C@@H](CO)C(=O)N[C@@H](CO)C(=O)NCC(=O)N[C@@H](C)C(=O)N1CCC[C@H]1C(=O)N1CCC[C@H]1C(=O)N1CCC[C@H]1C(=O)N[C@@H](CO)C(=O)O)C(C)C) [Compound A79] | 10.2 pEC50 | < 9 pEC50
6 | YSHGTFTSDYSKYLD[Aib]KSAQEFV[Aib]WLEDEPSSGAPPPS-OH (N-terminus assumed; SMILES CC(C)C[C@H](NC(=O)[C@H](Cc1ccc(O)cc1)NC(=O)[C@H](CCCCN)NC(=O)[C@H](CO)NC(=O)[C@H](Cc1ccc(O)cc1)NC(=O)[C@H](CC(=O)O)NC(=O)[C@H](CO)NC(=O)[C@@H](NC(=O)[C@H](Cc1ccccc1)NC(=O)[C@@H](NC(=O)CNC(=O)[C@H](Cc1c[nH]cn1)NC(=O)[C@H](CO)NC(=O)[C@@H](N)Cc1ccc(O)cc1)[C@@H](C)O)[C@@H](C)O)C(=O)N[C@@H](CC(=O)O)C(=O)NC(C)(C)C(=O)N[C@@H](CCCCN)C(=O)N[C@@H](CO)C(=O)N[C@@H](C)C(=O)N[C@@H](CCC(N)=O)C(=O)N[C@@H](CCC(=O)O)C(=O)N[C@@H](Cc1ccccc1)C(=O)N[C@H](C(=O)NC(C)(C)C(=O)N[C@@H](Cc1c[nH]c2ccccc12)C(=O)N[C@@H](CC(C)C)C(=O)N[C@@H](CCC(=O)O)C(=O)N[C@@H](CC(=O)O)C(=O)N[C@@H](CCC(=O)O)C(=O)N1CCC[C@H]1C(=O)N[C@@H](CO)C(=O)N[C@@H](CO)C(=O)NCC(=O)N[C@@H](C)C(=O)N1CCC[C@H]1C(=O)N1CCC[C@H]1C(=O)N1CCC[C@H]1C(=O)N[C@@H](CO)C(=O)O)C(C)C) [Compound A2] | 11.7 pEC50 | 5.4 pEC50
7 | YSHGTFTSDYSKYLD[Aib]KLAQEFV[Aib]WLEDEPSSGAPPPS-OH (N-terminus assumed; SMILES CC(C)C[C@H](NC(=O)[C@H](CCCCN)NC(=O)C(C)(C)NC(=O)[C@H](CC(=O)O)NC(=O)[C@H](CC(C)C)NC(=O)[C@H](Cc1ccc(O)cc1)NC(=O)[C@H](CCCCN)NC(=O)[C@H](CO)NC(=O)[C@H](Cc1ccc(O)cc1)NC(=O)[C@H](CC(=O)O)NC(=O)[C@H](CO)NC(=O)[C@@H](NC(=O)[C@H](Cc1ccccc1)NC(=O)[C@@H](NC(=O)CNC(=O)[C@H](Cc1c[nH]cn1)NC(=O)[C@H](CO)NC(=O)[C@@H](N)Cc1ccc(O)cc1)[C@@H](C)O)[C@@H](C)O)C(=O)N[C@@H](C)C(=O)N[C@@H](CCC(N)=O)C(=O)N[C@@H](CCC(=O)O)C(=O)N[C@@H](Cc1ccccc1)C(=O)N[C@H](C(=O)NC(C)(C)C(=O)N[C@@H](Cc1c[nH]c2ccccc12)C(=O)N[C@@H](CC(C)C)C(=O)N[C@@H](CCC(=O)O)C(=O)N[C@@H](CC(=O)O)C(=O)N[C@@H](CCC(=O)O)C(=O)N1CCC[C@H]1C(=O)N[C@@H](CO)C(=O)N[C@@H](CO)C(=O)NCC(=O)N[C@@H](C)C(=O)N1CCC[C@H]1C(=O)N1CCC[C@H]1C(=O)N1CCC[C@H]1C(=O)N[C@@H](CO)C(=O)O)C(C)C) [Compound A78] | 10.8 pEC50 | < 9 pEC50
8 | YSHGTFTSDYSKYLD[Aib]KRAQEFVIWLEDEPSSGAPPPS-OH (N-terminus assumed; SMILES CC[C@H](C)[C@H](NC(=O)[C@@H](NC(=O)[C@H](Cc1ccccc1)NC(=O)[C@H](CCC(=O)O)NC(=O)[C@H](CCC(N)=O)NC(=O)[C@H](C)NC(=O)[C@H](CCCNC(=N)N)NC(=O)[C@H](CCCCN)NC(=O)C(C)(C)NC(=O)[C@H](CC(=O)O)NC(=O)[C@H](CC(C)C)NC(=O)[C@H](Cc1ccc(O)cc1)NC(=O)[C@H](CCCCN)NC(=O)[C@H](CO)NC(=O)[C@H](Cc1ccc(O)cc1)NC(=O)[C@H](CC(=O)O)NC(=O)[C@H](CO)NC(=O)[C@@H](NC(=O)[C@H](Cc1ccccc1)NC(=O)[C@@H](NC(=O)CNC(=O)[C@H](Cc1c[nH]cn1)NC(=O)[C@H](CO)NC(=O)[C@@H](N)Cc1ccc(O)cc1)[C@@H](C)O)[C@@H](C)O)C(C)C)C(=O)N[C@@H](Cc1c[nH]c2ccccc12)C(=O)N[C@@H](CC(C)C)C(=O)N[C@@H](CCC(=O)O)C(=O)N[C@@H](CC(=O)O)C(=O)N[C@@H](CCC(=O)O)C(=O)N1CCC[C@H]1C(=O)N[C@@H](CO)C(=O)N[C@@H](CO)C(=O)NCC(=O)N[C@@H](C)C(=O)N1CCC[C@H]1C(=O)N1CCC[C@H]1C(=O)N1CCC[C@H]1C(=O)N[C@@H](CO)C(=O)O) [Compound A4] | 11.8 pEC50 | < 5 pEC50
9 | YSHGTFTSDYSKYLD[Aib]KYAQEFV[Aib]WLEDEPSSGAPPPS-OH (N-terminus assumed; SMILES CC(C)C[C@H](NC(=O)[C@H](Cc1ccc(O)cc1)NC(=O)[C@H](CCCCN)NC(=O)[C@H](CO)NC(=O)[C@H](Cc1ccc(O)cc1)NC(=O)[C@H](CC(=O)O)NC(=O)[C@H](CO)NC(=O)[C@@H](NC(=O)[C@H](Cc1ccccc1)NC(=O)[C@@H](NC(=O)CNC(=O)[C@H](Cc1c[nH]cn1)NC(=O)[C@H](CO)NC(=O)[C@@H](N)Cc1ccc(O)cc1)[C@@H](C)O)[C@@H](C)O)C(=O)N[C@@H](CC(=O)O)C(=O)NC(C)(C)C(=O)N[C@@H](CCCCN)C(=O)N[C@@H](Cc1ccc(O)cc1)C(=O)N[C@@H](C)C(=O)N[C@@H](CCC(N)=O)C(=O)N[C@@H](CCC(=O)O)C(=O)N[C@@H](Cc1ccccc1)C(=O)N[C@H](C(=O)NC(C)(C)C(=O)N[C@@H](Cc1c[nH]c2ccccc12)C(=O)N[C@@H](CC(C)C)C(=O)N[C@@H](CCC(=O)O)C(=O)N[C@@H](CC(=O)O)C(=O)N[C@@H](CCC(=O)O)C(=O)N1CCC[C@H]1C(=O)N[C@@H](CO)C(=O)N[C@@H](CO)C(=O)NCC(=O)N[C@@H](C)C(=O)N1CCC[C@H]1C(=O)N1CCC[C@H]1C(=O)N1CCC[C@H]1C(=O)N[C@@H](CO)C(=O)O)C(C)C) [Compound A1] | 12.3 pEC50 | 5.2 pEC50
